From patent US20110076234A1 (MOLMED, published 2011)
*1 amine or outer side, *2 acyl side, *3 side chain or, on linkers, in order; H or OH if unused. Where no end group is shown, it is not given here. [ ]: non-standard residue; d: D form. βAsp = O=C(O)[C@H](CC(=O)[*:2])N[*:1]

Molecular target: T1, Human αvβ3 integrin (purified) (human, UniProt P06756 31-1048; P05106 27-788)
T1 construct: Bought purified integrin, adsorbed on microtiter plates (0.5-2 µg/ml in DPBS with Ca2+ and Mg2+); also called avβ3; vitronectin receptor
Test: competitive ELISA on αvβ3-coated plates with biotinylated NGR-TNF as labelled ligand (legend of FIG. 7)

T1 sequence (P06756 31-1048, form in doubt, chain 1 of 2): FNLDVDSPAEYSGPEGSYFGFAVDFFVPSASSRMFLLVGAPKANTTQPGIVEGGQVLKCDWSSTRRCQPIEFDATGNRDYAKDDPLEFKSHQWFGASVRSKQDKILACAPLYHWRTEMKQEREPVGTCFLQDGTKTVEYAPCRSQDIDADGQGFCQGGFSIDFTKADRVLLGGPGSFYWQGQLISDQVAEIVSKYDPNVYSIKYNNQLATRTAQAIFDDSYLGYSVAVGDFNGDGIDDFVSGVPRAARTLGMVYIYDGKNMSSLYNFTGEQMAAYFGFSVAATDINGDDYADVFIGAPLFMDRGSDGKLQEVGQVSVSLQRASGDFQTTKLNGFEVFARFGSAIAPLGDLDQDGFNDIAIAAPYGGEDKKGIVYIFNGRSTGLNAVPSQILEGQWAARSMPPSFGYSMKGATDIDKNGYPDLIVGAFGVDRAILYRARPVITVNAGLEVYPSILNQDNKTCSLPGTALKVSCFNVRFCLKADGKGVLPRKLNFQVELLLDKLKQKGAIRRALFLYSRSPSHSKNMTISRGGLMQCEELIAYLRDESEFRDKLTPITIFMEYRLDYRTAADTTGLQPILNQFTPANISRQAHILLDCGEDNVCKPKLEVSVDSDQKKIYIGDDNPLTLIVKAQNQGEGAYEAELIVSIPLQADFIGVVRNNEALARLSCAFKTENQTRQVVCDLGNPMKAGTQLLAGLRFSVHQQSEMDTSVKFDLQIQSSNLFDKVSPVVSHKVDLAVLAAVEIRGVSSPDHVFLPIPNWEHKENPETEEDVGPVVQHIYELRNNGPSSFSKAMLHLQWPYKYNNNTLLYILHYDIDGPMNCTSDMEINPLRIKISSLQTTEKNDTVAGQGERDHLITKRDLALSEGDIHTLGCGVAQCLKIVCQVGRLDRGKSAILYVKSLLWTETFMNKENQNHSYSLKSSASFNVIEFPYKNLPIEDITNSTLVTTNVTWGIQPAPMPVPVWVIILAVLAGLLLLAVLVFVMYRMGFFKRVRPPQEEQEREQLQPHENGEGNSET
T1 sequence (P05106 27-788, form in doubt, chain 2 of 2): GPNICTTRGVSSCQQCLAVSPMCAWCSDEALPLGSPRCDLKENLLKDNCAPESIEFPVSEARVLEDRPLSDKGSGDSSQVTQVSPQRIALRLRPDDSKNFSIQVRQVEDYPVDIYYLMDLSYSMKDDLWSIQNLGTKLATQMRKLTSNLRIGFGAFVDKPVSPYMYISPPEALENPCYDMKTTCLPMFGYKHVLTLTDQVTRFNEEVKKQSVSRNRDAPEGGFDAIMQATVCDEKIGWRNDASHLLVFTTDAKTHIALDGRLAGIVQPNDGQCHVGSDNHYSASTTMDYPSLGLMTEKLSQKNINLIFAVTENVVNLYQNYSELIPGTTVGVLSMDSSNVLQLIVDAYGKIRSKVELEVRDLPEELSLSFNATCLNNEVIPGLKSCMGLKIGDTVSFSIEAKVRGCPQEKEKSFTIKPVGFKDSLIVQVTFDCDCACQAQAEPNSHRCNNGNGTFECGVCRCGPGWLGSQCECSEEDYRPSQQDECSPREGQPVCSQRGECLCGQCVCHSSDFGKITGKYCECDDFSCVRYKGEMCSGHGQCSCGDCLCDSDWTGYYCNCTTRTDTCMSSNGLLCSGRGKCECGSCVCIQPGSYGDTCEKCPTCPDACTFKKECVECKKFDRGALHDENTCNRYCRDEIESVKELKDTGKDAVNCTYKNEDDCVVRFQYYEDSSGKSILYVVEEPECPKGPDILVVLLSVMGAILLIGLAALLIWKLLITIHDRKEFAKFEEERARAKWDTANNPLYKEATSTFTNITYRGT

| EC50 [nM] | Binder |
| --- | --- |
| 100 | C[dD]GRCGVRY (cysteine pairing not given here) [D-DGR-pep (sequence of NGR-pep with D-D in place of N)] |
| 100 | C[βAsp]GRCGVRY (cysteine pairing not given here) [isoDGR-pep (sequence of NGR-pep with L-isoD in place of N)] |
